Source: paper PMC8406179

Assays:
endogenous murine Rb1 = endogenous murine Rb1 (UniProt P13405); test: immunoprecipitation/Western blot (anti-HA IP of E7, Rb1 immunoblot); conditions: NIH 3T3 cells, transient expression; parent: 1
[1] = molecular target: retinoblastoma tumor suppressor protein RB1 (endogenous, HCT116) (UniProt P06400); test: immunoprecipitation/Western blot (anti-Flag IP of E7, RB1 immunoblot); conditions: parent: 1
[2] = HCT116 cells, transient expression

Chain of UniProt P06400 (P06400 whole entry): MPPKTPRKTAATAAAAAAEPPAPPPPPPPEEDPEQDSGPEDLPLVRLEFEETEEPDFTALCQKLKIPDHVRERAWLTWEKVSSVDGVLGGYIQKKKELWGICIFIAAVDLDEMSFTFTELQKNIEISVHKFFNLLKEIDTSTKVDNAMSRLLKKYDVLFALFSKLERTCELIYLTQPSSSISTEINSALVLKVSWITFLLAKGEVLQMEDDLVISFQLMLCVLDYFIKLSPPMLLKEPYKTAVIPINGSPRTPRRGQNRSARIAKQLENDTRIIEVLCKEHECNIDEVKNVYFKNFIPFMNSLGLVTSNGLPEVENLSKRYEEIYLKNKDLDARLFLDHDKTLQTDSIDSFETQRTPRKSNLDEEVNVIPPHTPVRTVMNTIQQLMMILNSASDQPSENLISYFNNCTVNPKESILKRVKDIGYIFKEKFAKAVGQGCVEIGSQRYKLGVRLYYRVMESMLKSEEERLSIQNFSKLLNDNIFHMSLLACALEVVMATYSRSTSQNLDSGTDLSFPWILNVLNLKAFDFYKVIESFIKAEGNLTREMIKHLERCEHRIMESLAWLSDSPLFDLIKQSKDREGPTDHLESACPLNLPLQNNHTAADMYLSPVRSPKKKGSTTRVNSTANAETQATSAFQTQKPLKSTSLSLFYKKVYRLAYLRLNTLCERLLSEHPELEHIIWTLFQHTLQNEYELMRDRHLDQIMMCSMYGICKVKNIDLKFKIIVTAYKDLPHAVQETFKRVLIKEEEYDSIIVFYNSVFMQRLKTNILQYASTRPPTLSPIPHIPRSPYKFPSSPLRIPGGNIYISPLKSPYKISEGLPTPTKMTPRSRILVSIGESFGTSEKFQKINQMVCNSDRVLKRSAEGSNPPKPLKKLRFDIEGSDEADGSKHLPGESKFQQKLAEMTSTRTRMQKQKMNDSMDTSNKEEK
Chain of UniProt P13405 (P13405 whole entry): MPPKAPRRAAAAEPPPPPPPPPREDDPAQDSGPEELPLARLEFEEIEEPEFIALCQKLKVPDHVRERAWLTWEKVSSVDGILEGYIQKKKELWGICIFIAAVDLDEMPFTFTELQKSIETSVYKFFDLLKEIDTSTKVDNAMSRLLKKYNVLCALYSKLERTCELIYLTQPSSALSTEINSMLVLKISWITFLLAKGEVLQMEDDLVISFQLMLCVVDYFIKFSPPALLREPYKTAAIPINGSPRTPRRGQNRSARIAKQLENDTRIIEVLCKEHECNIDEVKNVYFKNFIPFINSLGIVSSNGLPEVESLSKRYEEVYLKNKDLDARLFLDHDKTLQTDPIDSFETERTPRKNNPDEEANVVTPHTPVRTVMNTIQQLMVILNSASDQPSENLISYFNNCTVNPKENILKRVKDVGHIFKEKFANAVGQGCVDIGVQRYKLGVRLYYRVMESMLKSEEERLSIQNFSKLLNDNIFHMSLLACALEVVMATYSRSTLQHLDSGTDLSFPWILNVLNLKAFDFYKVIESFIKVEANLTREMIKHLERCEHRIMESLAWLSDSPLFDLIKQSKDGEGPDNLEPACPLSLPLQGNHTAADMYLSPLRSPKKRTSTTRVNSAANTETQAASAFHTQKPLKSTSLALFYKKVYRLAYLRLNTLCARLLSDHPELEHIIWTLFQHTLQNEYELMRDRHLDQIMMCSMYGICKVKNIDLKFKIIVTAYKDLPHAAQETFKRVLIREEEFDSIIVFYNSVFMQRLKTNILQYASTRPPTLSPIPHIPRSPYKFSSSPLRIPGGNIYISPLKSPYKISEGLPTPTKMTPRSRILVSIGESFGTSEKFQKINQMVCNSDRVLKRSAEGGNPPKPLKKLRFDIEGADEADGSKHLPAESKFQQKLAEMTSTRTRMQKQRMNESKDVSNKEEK

Substance	ratio to parent (endogenous murine Rb1)	ratio to parent [1, 2]	ratio to parent [1]
N-terminally FLAG/HA epitope-tagged MmuPV1 E7 D90A	0.02	0.01	0.05
N-terminally FLAG/HA epitope-tagged MmuPV1 E7 D90N			0.27
N-terminally FLAG/HA epitope-tagged MmuPV1 E7 D90T			0.07
N-terminally FLAG/HA epitope-tagged MmuPV1 E7 E84R; S85R		0.65	
N-terminally FLAG/HA epitope-tagged MmuPV1 E7 R57D		0.64	
